assay: soluble on expression in E. coli; label from the status in PepcDB or PDB records

| Sequence | soluble on expression in E. coli |
| --- | --- |
| MRLFTPEAMREADRKAVERGYPSLLLMEWAGMKAARVYLELFGKAPALVLAGKGNNGGDGLVLARHLLLEGVGVRVYAAGGQTGDALLALQALLAHGVEVRPLEEASFREGEVVVDALFGTGLKGPLTDFYAELVERVNRAGLPVLALDLPSGLPFSPHVRATATVAFAALKTPHLFQREACGKLYLAEIGLPKPLLEREDLPEVASPEALRPLLPRRPLTAHKGSVGRVGVLGGYQGEDLRYAGAPLLAALGAYRMGAGLVHLVAPEGTPLEPLEAVFHPVPSPALPPLKAEALAVGMGGGPWGRAWALKALEARLPTVLDADALHPEVAEAYRKAGVPAVLTPHAGEAGRLLGISPEEVAKDPLGAARALAERTGLAVVLKGNPTVVAEGERLSVNPTGNPALATGGTGDVLSGAIAALLAAGLRPFDAARLGVFLHGLAGDLLAEEKGVGLLAREVAEALPRARRLLQEGRVPPAFFPR | soluble |
| MRLGICSHTLCPPIEGNIKQHLHNPMKEEEFNELKQNLDSYTPLLPESVTDYFMEKAGVVTSDQSVKKLVSLLAHKFVTDIAVSSFQYHRINQKAAQKDKRFAKEKKPTFQLVDLEKALEEVGISISRPHYYM | not soluble |
| MRLLIVLSALLIPCLAQLSEDSSELEFGGQQAQRPSPDGPLFPRFLMHVPRFARKEFFDIVSNDQLSQDQQNEQLTIWAKAFNVTDEFNAWTKKIQEQKEAVSKNVEAVASNITTVYTQLEEILSNSNLTRRDQHDQIRKLATTFPREVRALFFIARNYRPEGRSPIFGQGIGMGKKPQSSMVPFIFQQQQPPMMMFGQQPFMPAGPMMMNRFQQTGSQQNFQSRRGGRGDGPGFVPGTQDNNQRGSGERGQRQNFGPSDNLTNGNQFSKKQFARGPSSMNSDLSENSQHSDSNSQFDFPRGPGGRGGRGQGPDFGPGGQGGRGQGPDFGPQDDFPGRRGSGGPGGRGGRGQGPDFEPQDDFPGRRGSGGPGRRGGRGQGPDFGPQDDFPGRRGSGGPGGRGGRGQGPDFGPGRQGGRGQGPDFGPQDDFSGRRGSGGPGGRGGRGQEPDFGPGGQGGRGQGPDFGPQDDFPGRRGSGGPEGRDGRGQGPDFGPGSQGGRGQDSDSGSQDAFPGRRGSGGPGGRGQGPDFGPQDDFPGRRGSGGPEGRDGRGQGPDFGPGSQGGRGQDSDSGSQDAFPGRRGPGGPGGLGGRGQGPDFGPGGQGDRGQGPDFGARSQGNRGQGPAFESRQPRQFDDADTSSAPSQKYFQRQMNSGMRFDQSSGFGMRKSQSTQQNYENFAEN | not soluble |
| MRLLPVTLLLGAVIFVSTKSTCRTRTKPPSTVPMNEVTEAVTTKKASNVTVKPTTCEASWTRVERSIGGWCLKVYNGFVHQDQASQACIRIGAELSGSESSAERAVIARLGKERMLAASDYKFGTIRVGIARPTTTRAWALTDGNNDGGQQGIQWSKGEPQLGPTSGYSHNCALMWIWASTGTSPYEHGKYFHKFVHLLGRTCTEDLFVESVLLDF | not soluble |
| MRLYWRMPTTTPALRPQDLTETAFAPYGWMLGKPLPAGDDVLRFSNPATDFWQEHVFDTGAGAGRETEVLWVNYRISQPGFDTLEKHLLTQQAIVPLTGAIVQIVARSAFDGSPDLASLAAFVVPPGQGICMRPGCWHATRISGGEVTCLMLTRRSTTLDLVRHLHGEPARESEIVAIVPHGLDLPARPTAEGPAPHGRLEHHHHHH | not soluble |
| MRMKQTIPSSYVGLKINEWYTHIRQFHVAEAERVKLEVEREIEDMEEDQDLLLYYSLMEFRHRVMLDYIKPFGEDTSQLEFSELLEDIEGNQYKLTGLLEYYFNFFRGMYEFKQKMFVSAMMYYKRAEKNLALVSDDIEKAEFAFKMAEIFYNLKQTYVSMSYAVQALETYQMYETYTVRRIQCEFVIAGNYDDMQYPERALPHLELALDLAKKEGNPRLISSALYNLGNCYEKMGELQKAAEYFGKSVSICKSEKFDNLPHSIYSLTQVLYKQKNDAEAQKKYREGLEIARQYSDELFVELFQFLHALYGKNIDTESVSHTFQFLEEHMLYPYIEELAHDAAQFYIENGQPEKALSFYEKMVHAQKQIQRGDCLYEI | not soluble |
| MRMRLMLLGGGNALGQALIRLGAEEDIAFLAPRPPENGWAPSSLTQLLDDHRPDALVNLAYYFDWFQAESVSEQRLAQQERAVERLAELCQHHQITLVQPSSYRVFDGSRATAYSEKDEPVPLGLRGQALWRIEQSVRAACPQHVLLRFGWLLDESIDGALGRFLTRAEQPQELLLADDRRGNPTPVDDAARVILSVLKQLDCNAPLWGTYHYAGNEATTPLALGQAILAEAGQYRQLAVQAPTPQAHAARPDASEEPQHAVLACKKILHTFGIKPRAWRAGLPPLLDRFYRHG | not soluble |
| MRNFDLSPLYRSAIGFDRLFNHLENNQSQSNGGYPPYNVELVDENHYRIAIAVAGFAESELEITAQDNLLVVKGAHADEQKERTYLYQGIAERNFERKFQLAENIHVRGANLVNGLLYIDLERVIPEAKKPRRIEIN | not soluble |
| MRNIYDLANELERGIRALPEYKNLVEKKEAIATDAEASALFKEFTDFQEDFYAKMQAGTMPTAEEQAAVQELGQKVEANALLKEYLTAQQSLSVYLNDIERIIFKPLQELNN | not soluble |
| MRNLSDRAKFESMINSPSKSVFVRNLNELEALAVRLGKSYRIQLDQAKEKWKVK | not soluble |
| MRNLTFLTRCKPLAASVLALMLLGGAAKSFANNDLPDLGTAAVNTFSLEKEMIYGDAYMRVIRSSAPMLNDPVLSQYLTELGNKLVAHATGVKTPFYFFLLQNDEINAFAFFGGHVAVHTGLFLNADNESELASVLGHEITHVTQRHLARSLEAQQKTGPATVAGLLGAILLTIAVPQAGMAALATTQAMATQSKINYTRLHEKEADRIGMQILVDAGFDPNASAEFFGKLASRYRFTTTPPQMLLTHPLPESRISEARDRAQQYPHRYVPDNLNFQLAKARIQVRFSSFSDDAVLSMFEKQLNKQTYGFKEAALYGKALALFRLKKFDESEKIVDELLKIDDNNLFYIDTKTDLLNERKDYAQAIKLLEAQRNLKPTSQVINANLANIYIEAGEPAKAIPLLEDMIFLDKQNQLPYQLLNLAYKKLGNPGMEYFSNAELMALGANYKGAIDQLNFAYRASEGNQLQLARIEARIRQFKQADREMDALKLEHHHHHH | not soluble |
| MRNQELARIFEEIGLMSEFLGDNPFRVRAYHQAARTLYDLDTPIEEIAEKGKEALMELPGVGPDLAEKILEFLRTGKVRKHEELSRKVPRGVLEVMEVPGVGPKTARLLYEGLGIDSLEKLKAALDRGDLTRLKGFGPKRAERIREGLALAQAAGKRRPLGAVLSLARSLLEAIRALPGVERAELCGSARRYKDTVGDLDFLVASREGERAVEGFVRLPQVKEVYAKGKERATVFLKNGLQVDLRVVPPESYGAGLQYLTGSKAHSIRLRALAQEKGLKLSEYGVFRGEKRIAGETEEEVYAALGLPWIPPPLREDQGEVEAALEGRLPKLLELPQVKGDLQVHSTYSDGQNTLEELWEAAKTMGYRYLAVTDHSPAVRVAGGPSPEEALKRVGEIRRFNETHGPPYLLAGAEVDIHPDGTLDYPDWVLRELDLVLVSVHSRFNLPKADQTKRLLKALENPFVHVLAHPTARLLGRRAPIEADWEAVFQKAKEKGVAVEIDGYYDRMDLPDDLARMAYGMGLWISLSTDAHQTDHLRFMELAVGTAQRAWIGPERVLNTLDYEDLLSWLKARRGV | soluble |
| MRPIEEFVYVGNQVIVPDQASLMRCYYPIIGGEGYALYQYFVAFYDNGNHRHKFATILNHLNFGMQPLQESLAVLTAVDLLAFYHSPQGIYVVELKSPLSIEQFLKHAVYSSLLEQKIGEPAVDALKPTSLHGLQDLSKRFSDVFTDERLAQKSVSEIKPKNSFDLISFRNRMQADGLVFTDEKTDVPEIYKLSETYDMNWYDTYLLSKKTAVNHRIIVKRMQVQLEQAQAQKLGGDSALTETEKKILKAVKSGKPVDYLQSAKGPGGTVTNSEKKILTDLAQRGFMDEVINLMVAYSLGRTRSTNVNREYISKVANDFDFKKIVTAEQGLLALRSGYDKKSQRAKDDSKKKTNVPSWSDPDYDNQTNQADQAKLDEIRRRALAKLEKGKE | soluble |
| MRPKVSVALATYNGEKYIEEQLESIIKQTRAPDELVICDDCSNDETINIITKKIKNAHFDVKLVSNDKNIGYVQNFSKALEMSSGDIVFLCDQDDVWLSDKIEFIINKFNTRPDIQLLIHDVDYCKEDLTPIGQTKLQRMESNFDIESDYVVGMATAVRRSFLVHCLPVPSAPEVTHDEWLHDCARVLGCKGIVREVLALYRRHSLNVTAPSRLNVDFVTTRHYFGNESLAFLKLFRMETDLGSPDISPLVQWLDSRKMVLLDNGFSSEDRINTFIQYEEKRLRARNSRQSILRLDRWKRLFPIYDLYRSGGYHYYCGWKSALKDLLRTYALEHHHHHH | soluble |
| MRQSISNDVATISRISAVPAILQVITESTGLGFAAVARVTEDSWTACAVLDNLGFGLKPGGELELISTICHEIRASHKPVVIDHVAEDELFCAHHTPRRYNFQSYISIPIFLTDGSFFGTICALDPKPAKLTGTPIEAMMVSFARLLALQIEAEENMQRVQ | not soluble |
| MRRKMIMKIIQITDTHLLPPGIAINGVDPENQLRAAVADIVEKHADADLLVMTGDLCNYGEPEAYELLRDILAPVSIPTRLMLGNHDRRPEFVAAFPEQPRDDNGYIQSFIDTEFGRLLFLDSHEADVIGGIYGADRLTWLENALESAGDLPITVFVHHPPMDCGIRHFEHIGMHDDGAIMRRLAAHPAGIRHIVFGHIHVPMAGTTAEGIAYSSGQACAHRFITDIDVVDPLWTGGNPCYRVISLGAFGLRAYDAEVGQPVLGQTPVCEGP | not soluble |
| MRRTLVVPDVLLLGTLLAGLLLLSGCEGDYRPRAVGPIGEITVVMDSSHWTGPSGEALRANVTPWVETLPVSERSFQLRHLELTDERTYERVQDLKNVIIAAPLSDSTNETSFLRRRLSDEAEQAILDGQTAVVPKPNLWRRSQRIYYVAAASPDALAETFQSQGTQIRDTFTEATLQRMDRNMYEDDRRSALEDTLMQRHGFAVNMQSDFQIAVDTTTGSEGFVWLRRLLAQTRREFFVYYVEDVSPDQITPEWIYNTRDSLTRRHLRGNVRGFAKIDYRRPLKTEQRSFLDRYAYDSRGLWYMVAPLGGGNELRPVGGGGPFVNYTFYDQATDRVYMLDGSIFAPDNDKIDLLRQMEVMARTFRTAEGSRSPDASPTAAKLEHHHHHH | not soluble |
| MRSIVGDLLLLRLGDVAEGPMNQRLYRAIREAILDGAIAADTRLPATRDLAAELGIARNTVVHVYSQLQAEGYTHSRQGNGTFVTASLPDAYLASGRHARRPAIAAVRPTLSERGARIVDQVSASPYQWGAFMPGVPDLTEFPHQKFGRLFSTLWRNPHPEMLTYAYGGGLPALREALAQHLALTRSIDCDPEQIIITEGSHQAIDLATRILGGHGDLAWIENPGYWGARSVLIANGIRIEPLPVDEEGMQLPAEPVAQPPRFIFVTPSHQYPLGSVMSLARRRQLLALARSWGSWIIEDDYDSEFRFSGRPISSLQGLEPDAPVIYLGTFSKTLYPGLRVGYLVLPKALAGAFQAAHAELYREGHLVTHAVLASFIAEGHYAAHIRRMRMLYGRRRAILVNLIERRLGAQWLHPDSSDAGLHLVLDFPSGLDDKQVMQAAHARGVLTRALSRYYAEGTTPRQGLLLGYACVPENDIARKFELVLDSLAEVAQRSRA | not soluble |
| MRSKRWKTSDITDYGKKRKESESCGSSSPILETQSSGGAELDEVTEDEYSSNSSSNETSDEEENSEVPNVLSITEREKSWQKLTENDLGRIRFILKYTSNTKKCVNEYFQYNHGQNNEIMKSLLLDTDGTMTAKACSECAYDLNQCHCKKPLRFINAPCEVINQVLHVENAEPTRINHVIATLFRNHIGEIFTKARTAEARASEEAQIRIQIQDNSNAFQRSYHNDPQPSSAEEHEEDIVVDG | not soluble |

— the DeepSol protein solubility set
